US20250243282A1 (TRUEBINDING, published 2025)
Residue numbers refer to the chain shown, from its start. Names and notes keep the numbering of the source.

B1: 20H5.A3 (antibody, mouse IgG2a, V domains shown)
VH: QIQLVQSGPELKKPGESVKISCKASGYAFTTYGMSWVQQAPGKGLKWMGWVNTYSGVPTCADDFKGRFAFSLETSASTAYLQINNLRNEDTATYFCARGPYAMDYWGQGTSVTVSS
VL: DIQMTQTTSSLSASLGDRVTINCSASQDISNYLNWYQQKPDGTVKLLIYYTSSLLSGVPSRFSGSGSGTDYSLTISNLEPEDIATYFCQQYSKLPYTFGSGTHLEIKR
B2: 23H9.2E4 (antibody, mouse IgG2a, V domains shown)
VH: B1 VH with S17T, A28T, G33A, Q38K, V51I, C60Y, F64L, R87K
VL: B1 VL with N22S, D28G, S30N, T51A, L55H, F87Y, K93Q, L94V, H103K
B3: 15G7.2A7 (antibody, human IgG4 S228P, kappa, V domains shown)
VH: EVQLQQSGPELVKPGASVKISCKASGYTFTDYYMNWVKQSHGKSLEWIGDINPNNGGTNYNQKFKGKATLTVDKSSSTAYMELRSLTSEDSAVYYCTSGYGFPYWGQGTLVTVSA
VL: DIQMNQSPSSLSASLGDTISITCRASQNINIWLSWYQQKPGNIPQLLIYKASNLHTGVPSRFSGSGSGTDFTLTISSLQPEDIATYYCLQGQSYPLTFGAGTKLVMKR
B4: 2D10-VH0-VL0 (antibody, human IgG4 S228P, kappa, V domains shown)
VH: QVQLQQSGPELVKPGASVKISCKASGYTFTDYYINWVKQRPGQGLEWIGWIYPGSQDTKYNEKFKGKATLTVDTSSSTAYMQLGSLTSEDSAVYFCANYFGSSGWFFDVWGTGTTVTVSS
VL: DIVMTQAAFSNPVTLGTSASISCRSSKSLLHSDGITYLYWYLQRPGQSPQLLIYRMSNLASGVPDRFSGSGSGTDFTLRISRVEAEDVGVYYCAQMIEFPLTFGAGTILELKR
B5: 20D11.2C6 (antibody, mouse IgG2a, V domains shown)
VH: B3 VH with Y32F, M34I, N54K, T58I, Q62P, G66I, A79S, E82D, S85G
VL: B3 VL with S20T, N30Y, Q45K, S77T, Y87F, V105E
B6: 3B11.2G2 (antibody, mouse IgG2a, V domains shown)
VH: QIQLVQSGPELKKPGETVKISCKTSGYKFKTYVMSWVKQAPGKALKWMGWINTYSGVPTYADDFKGRFAFSLETSASTAYLEIINLKNEDTATYFCARDGNYGDPMDYWGQGTSVTVSS
VL: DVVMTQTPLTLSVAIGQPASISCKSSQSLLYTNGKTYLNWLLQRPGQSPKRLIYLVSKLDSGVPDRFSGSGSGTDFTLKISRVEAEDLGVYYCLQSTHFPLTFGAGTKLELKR
B7: 13A12.2E5 (antibody, mouse IgG2a, V domains shown)
VH: B6 VH
VL: DVVMTQTPLTLSVAIGQPASISCKSSQSLLYTNGKTYLNWLLQRPGQSPKRLIYLLSKLDSGVPDRFSASGSGTDFTLKISRVEAEDLGVYYCLQSTHFPLTFGAGTKLEMKR
B8: 14H10.2C9 (antibody, mouse IgG2a, V domains shown)
VH: QIQLVQSGPELKKPGETVKISCKASGYTFTTYGMGWVKQAPGKDLKWMGWINTYSGVPTYADDFKGRFAFSLETSASTAYLQISNLKNEDTATYFCSTPYEYDGAYWGQGTLVTVSA
VL: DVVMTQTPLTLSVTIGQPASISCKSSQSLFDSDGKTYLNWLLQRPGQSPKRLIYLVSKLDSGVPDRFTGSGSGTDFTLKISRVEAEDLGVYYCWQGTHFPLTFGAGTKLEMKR
B9: 15F10.2D6 (antibody, mouse IgG2a, V domains shown)
VH: EVQLVESGGGLVKPGGSLKLSCAASGFAFSSYAMSWVRQTPEKRLEWVATISDGGVYTYYTDHVKGRFTISRDNAEDNLYLQMSHLKSEDTAMYYCVRDGGYWGQGTTLTVSS
VL: DVLMTQTPLSLPVSLGDQASISCRSSQSIVHNNGNTYLEWYLQKPGQSPKLLIYKVSNRFSGVPDRFSGSGSGTDFTLKISRVEAEDLGVYYCFQGSHVPLTFGGGTKLELKR
B10: 7D8.2D8 (antibody, mouse IgG2a, V domains shown)
VH: B9 VH with A28T, V56I, T61P, H63N, E76K, D77N, Y80F
VL: B9 VL with N32S, G105A
B11: F846TC.14E4 (antibody, human IgG4 S228P, kappa, V domains shown)
VH: QVTLKESGPGILQPSQTLSLTCSFSGFSLSTSGMGVGWIRQPSGKGLEWLAHIWWDDDKYYNTALKSGLTISKDASKNQVFLKIASMDTADTATYYCARNLYDGSYGYYAMDYWGQGTSVTVSS
VL: DIVMTQAAFSNPVTLGTSASISCRSSKSLLHTNGITFLYWYLQKPGQSPQPLIYQMSNLASGVPDRFSSSGSGTDFTLRISRVEAEDVGVYYCAQNLELPWTFGGGTKLEINR
B12: F846TC.7F10 (antibody, human IgG4 S228P, kappa, V domains shown)
VH: EVQLVESGGDLVKPGGSLKLSCAASGFTFSNYGLSWIRQTPDKRLEWVATISSGGSYTYYPDSVKGRFTISRDSAKNTLYLQMSSLKSEDTAMYYCARHAHYYGVSPYYFDYWGQGTCLTVSS
VL: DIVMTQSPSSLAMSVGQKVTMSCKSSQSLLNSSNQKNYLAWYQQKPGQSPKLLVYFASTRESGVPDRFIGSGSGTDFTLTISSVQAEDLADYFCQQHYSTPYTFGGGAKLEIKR
B13: F849C.8D10 (antibody, human IgG4 S228P, kappa, V domains shown)
VH: QVQLQQTGAELVKPGASVKLSCKASGYTFTSYWINWVKQRPGQGLEWIGNIYPGSSSIYYSEKFKSKATLTVDTSSSTAYMQLSSLTSDDSAVYYCARWGYWGQGTTLTVSS
VL: B9 VL with S28D, N32S, N33S, P49L, G69A, L101P, G105S, L111I
B14: 849.2D7 (antibody, V domains shown)
VH: QVQLQQSGPQLVRPGASVKISCKASGYSFTNYWMHWVKQRPGQGLEWIGMIDPSDSETRLNQKFKDKATLTVDKSSSTAYMQLSSPTSEDSAVYYCATGRPDYWGQGTTLTVSS
VL: DIVMTQSHKFMSTSVGDRVSITCKASQDVSTAVAWYQQKPGQSPKLLIYWASTRHTGVPDRFTGSGSGTDYTLTISSVQAEDLALYYCQQHYSTPYTFGGGTKLEIK
B15: 6B3.2D3 (antibody, human IgG4 S228P, kappa, V domains shown)
VH: QVQLKQSGPGLVQPSQSLSITCTVSGFSLTSYGVHWVRQPPGKGLEWLGVIWSGGSTDYNAAFISRLSISKDNSKSQVFFKMNSLQADDTAIYYCAKGPYDYDLGWFAYWGQGTLVTVSA
VL: SIVMTQTPKFLLVSAGDRVTITCKASQSVSNDVAWYQQKPGQSPKLLIYYASNRYTGVPDRFTGSGYGTDFTFTISTVQAEDLAVYFCQQDYTSPYTFGGGTKLEIKR
B16: 849.1D2 (antibody, V domains shown)
VH: QVQLKESGPVLVAPSQSLSITCTVSGFSLSSYGVHWVRQPPGKGLEWLGVIWAGGSTDYDSALMSRLSISKDNSKSQVFLKMDSLQTDDTAMYYCAKPPYDYDGAWFAYWGQGTLVTVSA
VL: DVVMTQTPKFLLVSAGDRVTITCKASQSVSSDVAWYQQKPGQSPKLLIYFASNRYTGVPDRFTGSGYGTDFTFTISTVQAEDLAVYFCQHNYISPFTFGGGTKLEIK
B17: 849.5H1 (antibody, V domains shown)
VH: B16 VH with S30T, V34I, D58N, D60N, D83N, T87I, Y100H, G104Q, V116I
VL: DIQMNQSPSSLSASLGDTITITCHASQNINVWLSWYQQKPGNIPKLLIYQASNLHTGVPSRFSGRGSGTGFTLTISSLQPEDIATYYCQQGQSSPFTFGSGTKLEIK
B18: 847.13E2-mH0mL1 (antibody, V domains shown)
VH: EVQLQQSGPELVKPGASVKVSCKASGYSFTDYNMYWVMQSHGKSLEWIGYIDPYNDATSYSQKFTGKATLTVDKSSSTAFMHLNSLTSEDSAVYYCARWGRYEYYAMDYWGQGTSVTVSS
VL: DIVMTQSPASLPVSLGQRATISCRASKSVTTSAYSYIHWYQQRPGQPPKLLIYLASNLESGVPARFSGSGSGTDFTLNIHPVEEEDAATYYCQHNRELPPTFGGGTKLEIN
B19: 847.13E2-mH0mL2 (antibody, V domains shown)
VH: B18 VH
VL: DIVLTQSPATLSVTPGDSVSFSCRASQIINNNLHWYQQKSHESPRLLIRYTSQSISGIPSRFSGSGSGTDFTLSINNVETEDFGMYFCQQTNSWPLTFGAGTKLELK
B20: 847.16D10 (antibody, V domains shown)
VH: QVQLQQSGAELVRPGASVKLSCKASGYTFTGYWLNWVKQRPGQGLEWIGMIDPSDSETHYNQVFKDKATMTVDRSSSTAYMQLSGLTSEDSAVYYCANSNYASGSWGQGTTLTVSS
VL: QAVVTQESALTTSPGETVTLTCRSSTGAVTTSNYANWDQEKPDHLFTGLIGGTNNRAPGVPARFSGSLIGDKAALTITGAQTEDEAIYFCALWYSNHLVFGGGTKVTVL
B21: 847.23F11 (antibody, V domains shown)
VH: QVQLQQSGAELVRPGASVKLSCKASGYTFTSSWMNWVKQRPGQGLDWIGMIDPSDSETHYNQMFKDKATLTVDKSSNTAYMQLSRLTSEDSAVYYCVNSNYESGYWGQGTTLTVSS
VL: B14 VL with V3L, T31S, A32V, A34V, L46Q

molecular target: T1, Recombinant human Gal3 (rhGal3) (TrueBinding, #QC200361) (human, UniProt P17931 2-250); assay: cell-based or functional assay
Further: test concentration or dose not given here.

| Binder | % inhibition of CD62L shedding |
| --- | --- |
| B1 | 66.3% |
| B2 | 91.9% |
| B3 | 110% |
| B4 | 62.4% |
| B5 | 89.4% |
| B6 | 92.7% |
| B7 | 87.1% |
| B8 | 86.3% |
| B9 | 82.5% |
| B10 | 88.6% |
| B11 | 90.3% |
| B12 | 96.1% |
| B13 | 180% |
| B14 | 78.1% |
| B15 | 98.9% |
| B16 | 130% |
| B17 | 87.5% |
| B18 | 79.9% |
| B19 | 18.8% |
| B20 | 14.4% |
| B21 | 15.2% |

molecular target: T1, Recombinant human Gal3 (rhGal3) …; assay: cell-based or functional assay; remark: another data set of the same source

| Binder | % inhibition of IL-6 secretion | % inhibition of TNFα secretion |
| --- | --- | --- |
| B1 | 77.5% | 60.8% |
| B2 | 92.6% | 100% |
| B3 | 31% | 46.1% |
| B4 | 21.7% | 39.6% |
| B5 | 43.7% | 69.1% |
| B6 | -4.6% | 46.1% |
| B7 | 39.4% | 61.8% |
| B8 | 55.6% | 54% |
| B9 | 51.5% | 73.5% |
| B10 | 17.4% | -11.5% |
| B11 | 15.7% | 50.1% |
| B12 | -2.5% | 72.3% |
| B13 | -75.8% | -5.5% |
| B14 | 39% | 42.7% |
| B15 | 0.2% | -1.2% |
| B16 | 26.8% | 37% |
